Residue numbers refer to the chain shown, from its start. Numbers in names are those of the source.
T1: human FcγRIIa(R) (human, UniProt P12318 36-217)
T1 construct: also called FcgRIIaR; FcγRIIa type R
T1 chain: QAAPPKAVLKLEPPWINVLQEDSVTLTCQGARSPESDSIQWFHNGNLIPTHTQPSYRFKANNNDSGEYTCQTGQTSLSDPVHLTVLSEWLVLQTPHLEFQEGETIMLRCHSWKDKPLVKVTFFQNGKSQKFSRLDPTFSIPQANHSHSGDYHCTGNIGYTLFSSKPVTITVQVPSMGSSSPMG

T2: human FcγRIIa(H) (human, UniProt P12318 36-217)
T2 construct: also called FcgRIIaH; FcγRIIa type H
T2 sequence: T1 chain with R133H

T3: human FcγRIIb (human, UniProt P31994 43-217, limits assumed)
T3 construct: also called FcgRIIb
T3 sequence: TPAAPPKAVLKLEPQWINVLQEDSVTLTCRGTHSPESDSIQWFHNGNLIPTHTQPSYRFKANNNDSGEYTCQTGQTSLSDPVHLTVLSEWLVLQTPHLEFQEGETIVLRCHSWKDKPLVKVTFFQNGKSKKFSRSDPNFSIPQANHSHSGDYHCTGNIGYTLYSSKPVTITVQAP

B1: GpH7-B3 variant S239Y/GpL16-k0 (antibody, human IgG1)
heavy: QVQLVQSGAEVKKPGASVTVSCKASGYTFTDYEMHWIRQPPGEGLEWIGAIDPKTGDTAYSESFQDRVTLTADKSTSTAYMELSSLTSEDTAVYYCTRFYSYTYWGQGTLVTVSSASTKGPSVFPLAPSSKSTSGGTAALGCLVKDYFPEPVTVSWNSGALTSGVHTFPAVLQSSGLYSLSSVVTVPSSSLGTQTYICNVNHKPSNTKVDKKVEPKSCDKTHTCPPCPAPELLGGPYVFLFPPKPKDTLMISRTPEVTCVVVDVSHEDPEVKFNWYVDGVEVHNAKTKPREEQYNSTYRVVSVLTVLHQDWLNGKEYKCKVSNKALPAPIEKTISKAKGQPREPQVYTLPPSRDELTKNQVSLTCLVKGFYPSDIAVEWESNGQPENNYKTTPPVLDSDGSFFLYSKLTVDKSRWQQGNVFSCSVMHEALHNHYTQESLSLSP
light: DIVMTQSPLSLPVTPGEPASISCQASESLVHSNRNTYLHWYLQKPGQSPQLLIYKVSNRFSGVPDRFSGSGSGTDFTLKISRVEAEDVGVYYCSQNTHVPPTFGQGTKVEIE
notes: copies: 2 + 2
B2: GpH7-B3 variant G237K/GpL16-k0 (antibody, human IgG1)
heavy: not shown
light: B1 light
notes: copies: 2 + 2
B3: GpH7-B3 variant V266A/GpL16-k0 (antibody, human IgG1)
heavy: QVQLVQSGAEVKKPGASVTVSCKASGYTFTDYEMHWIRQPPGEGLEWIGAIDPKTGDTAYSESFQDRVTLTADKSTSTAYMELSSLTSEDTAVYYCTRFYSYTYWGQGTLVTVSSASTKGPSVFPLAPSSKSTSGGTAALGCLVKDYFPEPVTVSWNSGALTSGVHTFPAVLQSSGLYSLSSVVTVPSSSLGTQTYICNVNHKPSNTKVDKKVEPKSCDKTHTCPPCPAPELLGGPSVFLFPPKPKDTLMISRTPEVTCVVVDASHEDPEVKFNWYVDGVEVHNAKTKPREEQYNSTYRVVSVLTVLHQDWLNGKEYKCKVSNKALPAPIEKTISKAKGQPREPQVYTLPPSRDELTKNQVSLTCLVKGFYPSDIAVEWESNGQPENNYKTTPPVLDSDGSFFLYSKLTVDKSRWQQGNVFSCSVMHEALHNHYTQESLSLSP
light: B1 light
notes: copies: 2 + 2
B4: GpH7-B3 variant S267P/GpL16-k0 (antibody, human IgG1)
heavy: not shown
light: B1 light
notes: copies: 2 + 2
B5: GpH7-B3 variant V266Y/GpL16-k0 (antibody, human IgG1)
heavy: not shown
light: B1 light
notes: copies: 2 + 2
B6: GpH7-B3 variant V266D/GpL16-k0 (antibody, human IgG1)
heavy: not shown
light: B1 light
notes: copies: 2 + 2
B7: GpH7-B3 variant S267Y/GpL16-k0 (antibody, human IgG1)
heavy: not shown
light: B1 light
notes: copies: 2 + 2
B8: GpH7-B3 variant V266P/GpL16-k0 (antibody, human IgG1)
heavy: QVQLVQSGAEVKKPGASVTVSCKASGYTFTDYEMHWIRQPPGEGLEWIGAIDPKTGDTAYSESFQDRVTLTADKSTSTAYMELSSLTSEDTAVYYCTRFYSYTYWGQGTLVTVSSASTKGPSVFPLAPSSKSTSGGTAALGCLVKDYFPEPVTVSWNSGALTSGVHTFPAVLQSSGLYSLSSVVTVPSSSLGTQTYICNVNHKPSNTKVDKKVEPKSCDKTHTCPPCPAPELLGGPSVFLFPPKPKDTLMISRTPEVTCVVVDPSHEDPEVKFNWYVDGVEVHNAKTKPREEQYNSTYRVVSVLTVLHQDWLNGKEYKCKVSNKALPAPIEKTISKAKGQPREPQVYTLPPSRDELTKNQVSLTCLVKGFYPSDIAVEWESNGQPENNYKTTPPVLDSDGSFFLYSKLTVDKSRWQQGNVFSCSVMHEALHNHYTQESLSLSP
light: B1 light
notes: copies: 2 + 2
B9: GpH7-B3 variant V266W/GpL16-k0 (antibody, human IgG1)
heavy: not shown
light: B1 light
notes: copies: 2 + 2
B10: GpH7-B3 variant V2668/GpL16-k0 (antibody, human IgG1)
heavy: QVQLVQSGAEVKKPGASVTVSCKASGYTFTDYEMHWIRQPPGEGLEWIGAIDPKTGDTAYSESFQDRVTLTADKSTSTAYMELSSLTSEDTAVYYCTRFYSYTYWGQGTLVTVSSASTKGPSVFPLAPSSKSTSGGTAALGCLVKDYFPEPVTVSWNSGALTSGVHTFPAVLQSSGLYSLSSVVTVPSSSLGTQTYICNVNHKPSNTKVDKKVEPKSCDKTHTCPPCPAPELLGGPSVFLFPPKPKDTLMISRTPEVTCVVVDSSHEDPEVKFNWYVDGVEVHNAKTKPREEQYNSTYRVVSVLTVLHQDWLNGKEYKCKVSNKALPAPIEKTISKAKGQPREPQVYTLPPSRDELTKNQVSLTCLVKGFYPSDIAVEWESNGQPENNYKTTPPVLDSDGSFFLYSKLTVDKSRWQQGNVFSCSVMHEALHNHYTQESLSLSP
light: B1 light
notes: copies: 2 + 2
B11: GpH7-B3 variant S267K/GpL16-k0 (antibody, human IgG1)
heavy: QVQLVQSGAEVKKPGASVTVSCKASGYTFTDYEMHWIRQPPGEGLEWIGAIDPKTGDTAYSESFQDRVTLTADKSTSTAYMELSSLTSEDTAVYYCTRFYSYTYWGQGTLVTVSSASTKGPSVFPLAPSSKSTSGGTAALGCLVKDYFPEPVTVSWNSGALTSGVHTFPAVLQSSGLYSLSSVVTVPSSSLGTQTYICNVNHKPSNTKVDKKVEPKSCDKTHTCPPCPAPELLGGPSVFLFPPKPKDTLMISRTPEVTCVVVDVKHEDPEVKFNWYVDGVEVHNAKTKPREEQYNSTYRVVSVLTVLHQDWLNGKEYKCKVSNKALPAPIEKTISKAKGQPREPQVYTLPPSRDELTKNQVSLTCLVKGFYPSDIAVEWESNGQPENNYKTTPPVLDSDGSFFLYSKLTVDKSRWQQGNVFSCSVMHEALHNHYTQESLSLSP
light: B1 light
notes: copies: 2 + 2
B12: GpH7-B3 variant V266R/GpL16-k0 (antibody, human IgG1)
heavy: not shown
light: B1 light
notes: copies: 2 + 2
B13: GpH7-B3 variant V266T/GpL16-k0 (antibody, human IgG1)
heavy: not shown
light: B1 light
notes: copies: 2 + 2
B14: GpH7-B3 variant S267W/GpL16-k0 (antibody, human IgG1)
heavy: not shown
light: B1 light
notes: copies: 2 + 2
B15: GpH7-B3 variant S267R/GpL16-k0 (antibody, human IgG1)
heavy: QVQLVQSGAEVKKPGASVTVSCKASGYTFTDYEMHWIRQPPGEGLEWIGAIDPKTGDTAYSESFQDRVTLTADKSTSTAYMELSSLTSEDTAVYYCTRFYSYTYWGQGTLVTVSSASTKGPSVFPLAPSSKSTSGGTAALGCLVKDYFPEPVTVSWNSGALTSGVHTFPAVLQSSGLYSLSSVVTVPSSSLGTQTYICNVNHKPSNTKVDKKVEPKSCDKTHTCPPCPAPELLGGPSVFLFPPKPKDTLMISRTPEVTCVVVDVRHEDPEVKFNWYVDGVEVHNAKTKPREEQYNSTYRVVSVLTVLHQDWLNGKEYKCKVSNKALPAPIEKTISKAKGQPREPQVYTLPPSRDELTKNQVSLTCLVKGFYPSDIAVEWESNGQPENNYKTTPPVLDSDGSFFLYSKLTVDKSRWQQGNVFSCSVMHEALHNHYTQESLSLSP
light: B1 light
notes: copies: 2 + 2
B16: GpH7-B3 variant V266G/GpL16-k0 (antibody, human IgG1)
heavy: not shown
light: B1 light
notes: copies: 2 + 2
B17: GpH7-B3 variant S267H/GpL16-k0 (antibody, human IgG1)
heavy: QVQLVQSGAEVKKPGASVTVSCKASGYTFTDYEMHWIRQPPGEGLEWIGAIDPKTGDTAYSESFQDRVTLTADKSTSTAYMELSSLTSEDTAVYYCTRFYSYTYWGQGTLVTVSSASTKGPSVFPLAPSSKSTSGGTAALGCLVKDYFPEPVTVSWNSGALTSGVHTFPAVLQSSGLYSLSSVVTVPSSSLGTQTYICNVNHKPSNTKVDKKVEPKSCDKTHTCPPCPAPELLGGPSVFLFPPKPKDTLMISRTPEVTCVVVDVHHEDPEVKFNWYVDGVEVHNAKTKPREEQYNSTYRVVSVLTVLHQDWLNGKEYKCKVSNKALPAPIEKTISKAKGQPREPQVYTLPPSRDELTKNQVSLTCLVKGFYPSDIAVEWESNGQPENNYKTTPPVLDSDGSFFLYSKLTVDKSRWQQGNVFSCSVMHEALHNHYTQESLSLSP
light: B1 light
notes: copies: 2 + 2
B18: GpH7-B3 variant S267F/GpL16-k0 (antibody, human IgG1)
heavy: not shown
light: B1 light
notes: copies: 2 + 2
B19: GpH7-B3 variant V266E/GpL16-k0 (antibody, human IgG1)
heavy: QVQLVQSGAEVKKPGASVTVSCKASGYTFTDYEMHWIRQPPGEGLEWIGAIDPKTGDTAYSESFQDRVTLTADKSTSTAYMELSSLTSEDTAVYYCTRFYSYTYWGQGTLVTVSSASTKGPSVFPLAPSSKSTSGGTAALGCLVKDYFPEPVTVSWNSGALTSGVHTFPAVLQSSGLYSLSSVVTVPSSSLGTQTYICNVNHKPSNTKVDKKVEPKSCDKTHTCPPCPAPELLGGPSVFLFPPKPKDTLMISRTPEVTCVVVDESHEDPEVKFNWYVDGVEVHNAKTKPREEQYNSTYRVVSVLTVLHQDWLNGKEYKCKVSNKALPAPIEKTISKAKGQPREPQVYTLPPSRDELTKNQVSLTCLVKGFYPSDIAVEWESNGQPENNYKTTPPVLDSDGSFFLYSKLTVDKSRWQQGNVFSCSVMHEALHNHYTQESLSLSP
light: B1 light
notes: copies: 2 + 2
B20: GpH7-B3 variant V266Q/GpL16-k0 (antibody, human IgG1)
heavy: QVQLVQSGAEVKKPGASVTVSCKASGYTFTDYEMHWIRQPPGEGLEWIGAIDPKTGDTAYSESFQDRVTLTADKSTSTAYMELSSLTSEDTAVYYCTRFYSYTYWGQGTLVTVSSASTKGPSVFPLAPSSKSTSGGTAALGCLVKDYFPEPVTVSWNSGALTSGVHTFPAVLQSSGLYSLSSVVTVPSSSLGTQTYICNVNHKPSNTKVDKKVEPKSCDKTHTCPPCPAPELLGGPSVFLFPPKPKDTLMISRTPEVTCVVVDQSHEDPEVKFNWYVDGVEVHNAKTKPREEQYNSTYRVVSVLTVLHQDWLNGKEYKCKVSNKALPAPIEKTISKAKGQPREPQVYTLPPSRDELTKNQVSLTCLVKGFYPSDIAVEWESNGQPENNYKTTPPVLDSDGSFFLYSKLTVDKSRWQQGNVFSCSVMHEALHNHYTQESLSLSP
light: B1 light
notes: copies: 2 + 2
B21: GpH7-B3 variant V266K/GpL16-k0 (antibody, human IgG1)
heavy: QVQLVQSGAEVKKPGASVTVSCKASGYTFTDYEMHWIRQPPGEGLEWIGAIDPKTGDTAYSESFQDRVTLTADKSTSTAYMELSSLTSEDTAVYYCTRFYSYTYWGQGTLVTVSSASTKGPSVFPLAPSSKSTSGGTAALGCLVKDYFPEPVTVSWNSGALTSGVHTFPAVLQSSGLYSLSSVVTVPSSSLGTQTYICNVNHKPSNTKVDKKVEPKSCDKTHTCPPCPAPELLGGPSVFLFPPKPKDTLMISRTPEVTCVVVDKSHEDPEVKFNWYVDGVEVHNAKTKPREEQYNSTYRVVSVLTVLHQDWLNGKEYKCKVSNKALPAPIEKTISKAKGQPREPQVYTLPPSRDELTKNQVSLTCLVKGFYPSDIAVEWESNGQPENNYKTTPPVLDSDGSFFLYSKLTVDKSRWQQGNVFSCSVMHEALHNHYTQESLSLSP
light: B1 light
notes: copies: 2 + 2
B22: GpH7-B3 variant V266H/GpL16-k0 (antibody, human IgG1)
heavy: not shown
light: B1 light
notes: copies: 2 + 2
B23: GpH7-B3 variant V266N/GpL16-k0 (antibody, human IgG1)
heavy: not shown
light: B1 light
notes: copies: 2 + 2

target: T4, human FcγRIa (human, UniProt P12314 16-292, limits assumed); experiment: SPR (Biacore);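 further: antibody variants captured on sensor chip, Fcγ receptor flowed over at 25 °C, bound receptor normalized to amount of captured antibody, expressed relative to reference antibody set as 100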
T4 construct: also called FcgRIa; FcγRI (CD64)
T4 sequence (P12314 16-292 limits assumed): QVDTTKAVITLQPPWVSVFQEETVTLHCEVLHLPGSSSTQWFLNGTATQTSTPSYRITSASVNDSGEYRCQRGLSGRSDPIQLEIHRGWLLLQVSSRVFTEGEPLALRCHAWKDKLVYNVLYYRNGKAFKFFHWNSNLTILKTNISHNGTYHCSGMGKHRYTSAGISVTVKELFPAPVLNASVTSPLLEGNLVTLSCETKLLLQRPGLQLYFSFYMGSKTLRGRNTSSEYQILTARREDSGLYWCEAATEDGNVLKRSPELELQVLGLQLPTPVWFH

Row | Binder | relative binding activity
1 | B1 | 69 % of GpH7-B3/GpL16-k0
2 | B2 | 2 % of GpH7-B3/GpL16-k0
3 | B3 | 95 % of GpH7-B3/GpL16-k0
4 | B4 | 78 % of GpH7-B3/GpL16-k0
5 | B5 | 75 % of GpH7-B3/GpL16-k0
6 | B6 | 67 % of GpH7-B3/GpL16-k0
7 | B7 | 96 % of GpH7-B3/GpL16-k0
8 | B8 | 1 % of GpH7-B3/GpL16-k0
9 | B9 | 78 % of GpH7-B3/GpL16-k0
10 | B10 | 79 % of GpH7-B3/GpL16-k0
11 | B11 | 68 % of GpH7-B3/GpL16-k0
12 | B12 | 5 % of GpH7-B3/GpL16-k0
13 | B13 | 89 % of GpH7-B3/GpL16-k0
14 | B14 | 97 % of GpH7-B3/GpL16-k0
15 | B15 | 78 % of GpH7-B3/GpL16-k0
16 | B16 | 86 % of GpH7-B3/GpL16-k0
17 | B17 | 95 % of GpH7-B3/GpL16-k0
18 | B18 | 91 % of GpH7-B3/GpL16-k0
19 | B19 | 69 % of GpH7-B3/GpL16-k0
20 | B20 | 88 % of GpH7-B3/GpL16-k0
21 | B21 | 15 % of GpH7-B3/GpL16-k0
22 | B22 | 62 % of GpH7-B3/GpL16-k0
23 | B23 | 84 % of GpH7-B3/GpL16-k0

Target: T1, human FcγRIIa(R)
Experiment: SPR (Biacore);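 further: antibody variants captured on sensor chip, Fcγ receptor flowed over at 25 °C, bound receptor normalized to amount of captured antibody, expressed relative to reference antibody set as 100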

Row | Binder | relative binding activity
24 | B1 | 11 % of GpH7-B3/GpL16-k0
25 | B2 | 0 % of GpH7-B3/GpL16-k0
26 | B3 | 68 % of GpH7-B3/GpL16-k0
27 | B4 | 0 % of GpH7-B3/GpL16-k0
28 | B5 | 18 % of GpH7-B3/GpL16-k0
29 | B6 | 3 % of GpH7-B3/GpL16-k0
30 | B7 | 10 % of GpH7-B3/GpL16-k0
31 | B8 | -5 % of GpH7-B3/GpL16-k0
32 | B9 | 37 % of GpH7-B3/GpL16-k0
33 | B10 | 26 % of GpH7-B3/GpL16-k0
34 | B11 | 1 % of GpH7-B3/GpL16-k0
35 | B12 | -6 % of GpH7-B3/GpL16-k0
36 | B13 | 66 % of GpH7-B3/GpL16-k0
37 | B14 | 26 % of GpH7-B3/GpL16-k0
38 | B15 | -6 % of GpH7-B3/GpL16-k0
39 | B16 | 27 % of GpH7-B3/GpL16-k0
40 | B17 | 27 % of GpH7-B3/GpL16-k0
41 | B18 | 13 % of GpH7-B3/GpL16-k0
42 | B19 | -3 % of GpH7-B3/GpL16-k0
43 | B20 | 47 % of GpH7-B3/GpL16-k0
44 | B21 | 0 % of GpH7-B3/GpL16-k0
45 | B22 | 22 % of GpH7-B3/GpL16-k0
46 | B23 | 58 % of GpH7-B3/GpL16-k0

target: T2, human FcγRIIa(H); experiment: SPR (Biacore);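 further: antibody variants captured on sensor chip, Fcγ receptor flowed over at 25 °C, bound receptor normalized to amount of captured antibody, expressed relative to reference antibody set as 100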

Row | Binder | relative binding activity
47 | B1 | 5 % of GpH7-B3/GpL16-k0
48 | B2 | 0 % of GpH7-B3/GpL16-k0
49 | B3 | 41 % of GpH7-B3/GpL16-k0
50 | B4 | 2 % of GpH7-B3/GpL16-k0
51 | B5 | 2 % of GpH7-B3/GpL16-k0
52 | B6 | 2 % of GpH7-B3/GpL16-k0
53 | B7 | 2 % of GpH7-B3/GpL16-k0
54 | B8 | -1 % of GpH7-B3/GpL16-k0
55 | B9 | 0 % of GpH7-B3/GpL16-k0
56 | B10 | 5 % of GpH7-B3/GpL16-k0
57 | B11 | 1 % of GpH7-B3/GpL16-k0
58 | B12 | -1 % of GpH7-B3/GpL16-k0
59 | B13 | 18 % of GpH7-B3/GpL16-k0
60 | B14 | 2 % of GpH7-B3/GpL16-k0
61 | B15 | -1 % of GpH7-B3/GpL16-k0
62 | B16 | 10 % of GpH7-B3/GpL16-k0
63 | B17 | 3 % of GpH7-B3/GpL16-k0
64 | B18 | 1 % of GpH7-B3/GpL16-k0
65 | B19 | 0 % of GpH7-B3/GpL16-k0
66 | B20 | 11 % of GpH7-B3/GpL16-k0
67 | B21 | -1 % of GpH7-B3/GpL16-k0
68 | B22 | 2 % of GpH7-B3/GpL16-k0
69 | B23 | 32 % of GpH7-B3/GpL16-k0

target: T3, human FcγRIIb; experiment: SPR (Biacore);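 further: antibody variants captured on sensor chip, Fcγ receptor flowed over at 25 °C, bound receptor normalized to amount of captured antibody, expressed relative to reference antibody set as 100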

Row | Binder | relative binding activity
70 | B1 | 12 % of GpH7-B3/GpL16-k0
71 | B2 | -1 % of GpH7-B3/GpL16-k0
72 | B3 | 55 % of GpH7-B3/GpL16-k0
73 | B4 | 5 % of GpH7-B3/GpL16-k0
74 | B5 | 15 % of GpH7-B3/GpL16-k0
75 | B6 | 2 % of GpH7-B3/GpL16-k0
76 | B7 | 14 % of GpH7-B3/GpL16-k0
77 | B8 | -3 % of GpH7-B3/GpL16-k0
78 | B9 | 26 % of GpH7-B3/GpL16-k0
79 | B10 | 18 % of GpH7-B3/GpL16-k0
80 | B11 | 3 % of GpH7-B3/GpL16-k0
81 | B12 | -2 % of GpH7-B3/GpL16-k0
82 | B13 | 52 % of GpH7-B3/GpL16-k0
83 | B14 | 29 % of GpH7-B3/GpL16-k0
84 | B15 | 0 % of GpH7-B3/GpL16-k0
85 | B16 | 22 % of GpH7-B3/GpL16-k0
86 | B17 | 42 % of GpH7-B3/GpL16-k0
87 | B18 | 18 % of GpH7-B3/GpL16-k0
88 | B19 | 0 % of GpH7-B3/GpL16-k0
89 | B20 | 34 % of GpH7-B3/GpL16-k0
90 | B21 | -1 % of GpH7-B3/GpL16-k0
91 | B22 | 14 % of GpH7-B3/GpL16-k0
92 | B23 | 40 % of GpH7-B3/GpL16-k0

target: T5, human FcγRIIIa(F) (human, UniProt P08637 17-208, limits assumed); experiment: SPR (Biacore)
T5 construct: also called FcgRIIIaF; allotype F158
T5 sequence (P08637 other isoform, or with tags, fused parts or gaps limits assumed): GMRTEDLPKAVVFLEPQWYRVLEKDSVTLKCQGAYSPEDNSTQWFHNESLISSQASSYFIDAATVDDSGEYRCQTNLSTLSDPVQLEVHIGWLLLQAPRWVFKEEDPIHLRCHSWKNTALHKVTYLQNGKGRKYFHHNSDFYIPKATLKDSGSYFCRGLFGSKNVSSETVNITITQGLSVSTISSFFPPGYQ

Row | Binder | relative binding activity
93 | B1 | 6 % of GpH7-B3/GpL16-k0
94 | B2 | -1 % of GpH7-B3/GpL16-k0
95 | B3 | 26 % of GpH7-B3/GpL16-k0
96 | B4 | 0 % of GpH7-B3/GpL16-k0
97 | B5 | 0 % of GpH7-B3/GpL16-k0
98 | B6 | 1 % of GpH7-B3/GpL16-k0
99 | B7 | 1 % of GpH7-B3/GpL16-k0
100 | B8 | -1 % of GpH7-B3/GpL16-k0
101 | B9 | -1 % of GpH7-B3/GpL16-k0
102 | B10 | 3 % of GpH7-B3/GpL16-k0
103 | B11 | 1 % of GpH7-B3/GpL16-k0
104 | B12 | -1 % of GpH7-B3/GpL16-k0
105 | B13 | 12 % of GpH7-B3/GpL16-k0
106 | B14 | 2 % of GpH7-B3/GpL16-k0
107 | B15 | 0 % of GpH7-B3/GpL16-k0
108 | B16 | 3 % of GpH7-B3/GpL16-k0
109 | B17 | 1 % of GpH7-B3/GpL16-k0
110 | B18 | 0 % of GpH7-B3/GpL16-k0
111 | B19 | -1 % of GpH7-B3/GpL16-k0
112 | B20 | 3 % of GpH7-B3/GpL16-k0
113 | B21 | -1 % of GpH7-B3/GpL16-k0
114 | B22 | 0 % of GpH7-B3/GpL16-k0
115 | B23 | 5 % of GpH7-B3/GpL16-k0

— US20200199241A1 (Chugai, published 2020)
